In test [1] the target is SARS-CoV-2 S-dTM (soluble spike protein residues 1–1206 of wildtype WA-1 strain) (SARS-CoV-2 WA-1, UniProt P0DTC2). Briefly: ELISA. Particulars: both partners purified. In general terms: ELISA stands for enzyme-linked immunosorbent assay.
For test [2], the target named is SARS-CoV-2 spike N-terminal domain (NTD) (SARS-CoV-2, WA-1 / Wuhan-Hu-1, UniProt P0DTC2). The experiment in a line: ELISA. Particulars: both partners purified.
Test [3] deals with SARS-CoV-2 spike receptor-binding domain (RBD) (SARS-CoV-2, UniProt P0DTC2). The experiment in a line: ELISA. Particulars: both partners purified.
Test [4] concerns the target hCoV-HKU1 prefusion-stabilized spike (S2P) (hCoV-HKU1 isolate N1 (AAT98580.1), UniProt Q5MQD0, stabilised). The experiment in a line: ELISA. Particulars: both partners purified.
The target of test [5] is hCoV-OC43 prefusion-stabilized spike (S2P) (hCoV-OC43 (AAT84354.1), UniProt P36334, stabilised). Briefly: ELISA. Particulars: both partners purified.
The target of test [6] is SARS-CoV-2 S1R (spike residues 1–537) (SARS-CoV-2, UniProt P0DTC2). Briefly: ELISA. Particulars: both partners purified.
For test [7], the target named is T1, SARS-CoV-2 S1-short (spike residues 1–670) (SARS-CoV-2, UniProt P0DTC2).
T1 construct: also called S1-short1
Briefly: ELISA. Particulars: both partners purified.

The target in test [8] is T2, hCoV-OC43 full-length spike, expressed on the cell surface (hCoV-OC43 (AAT84354.1), UniProt P36334).
T2 construct: also called hCoV-OC43 spike; source: Expi-293 cells, transiently transfected, on the cell surface
The experiment in a line: flow cytometry on cells. The conditions noted are these: one partner purified. Background: A flow cytometer gives signals particle by particle.

For test [9], the target named is T3, SARS-CoV-2 full-length spike, expressed on the cell surface (SARS-CoV-2 WA-1 (GenBank QHD43416.1), UniProt P0DTC2).
T3 construct: also called SARS-CoV-2 spike; WA-1 spike; source: Expi-293 cells, transiently transfected, on the cell surface
The experiment in a line: flow cytometry on cells. Particulars: one partner purified.

Test [10] deals with T4, hCoV-HKU1 full-length spike, expressed on the cell surface (hCoV-HKU1 isolate N1 (AAT98580.1), UniProt Q5MQD0).
T4 construct: also called hCoV-HKU1 spike; source: Expi-293 cells, transiently transfected, on the cell surface
Briefly: flow cytometry on cells. The conditions noted are these: one partner purified.

Test [11] concerns the target T5, MERS-CoV full-length spike, expressed on the cell surface (MERS-CoV EMC/2012 (GenBank AFS88936), UniProt K0BRG7).
T5 construct: also called MERS-CoV spike; MERS-CoV EMC
Briefly: flow cytometry on cells. Particulars: one partner purified.

Test [12] has as its target T6, SARS-CoV-2 spike S2 subunit (SARS-CoV-2, UniProt P0DTC2).
T6 construct: also called S2 domain
Briefly: far-Western, overlay or dot blot. The conditions noted are these: both partners purified.

In test [13] the target is T7, SARS-CoV spike peptide #154, PELDSFKEELDKYFKNH (SARS-CoV residues 1125–1141); corresponding to SARS-CoV-2 … (SARS-CoV, residues 1125-1141).
T7 construct: also called 17-residue peptide
T7 chain: PELDSFKEELDKYFKNH
Briefly: far-Western, overlay or dot blot. Particulars: both partners purified.

Test [14] deals with T6, SARS-CoV-2 spike S2 subunit. Briefly: negative-stain EM. Particulars: both partners purified.

B1: antibody WS6 (IgG) (antibody, V domains shown)
VH: EVQFQQSGTVLARPGASVKMSCKASGYTFTNYWIHWVKQRPGQGLEYIGGTYPGNGDTTYNQKFKGKAKVTAVTPTSTAYMDLSSLTNEDSAVYYCTRTGSYFDYWGQGTTLTVSS
VL: QIVLTQSPAIMSASPGEKVTISCSATSSVSYIYWYQQRPGSSPKPWIYRTSNLASGVPVRFSGSGSGTSYSLTISNMEAEDAATYYCQQYQSYPPTFGAGTKLELK
notes: also called mAb WS6
As for B1, the binding result was “binds” in test [1]; “no binding” in [2]; “no binding” in [3]; “binds” in test [4]; “binds” in test [5]; “no binding” in [6]. Also, the binding result in test [7] is on record as “no binding”; in [8] it was “binds”; in test [9], “binds”; in test [10], “binds”; in test [11], “binds”; in [12], “binds”. Besides, in test [13], the binding result was “binds”.

B2: antigen-binding fragment (Fab) of WS6 (Fab, V domains shown)
VH: B1 VH
VL: B1 VL
notes: also called Fab WS6; WS6 Fab; source: generated from the mAb with the Pierce Fab kit
Regarding B2, the binding result in test [14] is reported as “binds”.

(Values after doi:10.1101/2022.01.25.477770 (bioRxiv, 2022).)
